Assay results taken from patent CN114409788A (WEST CHINA HOSPITAL OF SICHUAN UNIV, dated 2022).

What was measured:
[1] = target: T1, human CD38 Protein (ECD, His Tag) (human, UniProt P28907 43-300); experiment: ELISA, human CD38 ECD-His coated on plate, detection with HRP goat anti-mouse IgM, OD450
T1 construct: extracellular domain; Commercial recombinant antigen coated on the ELISA plate at 0.5 ug/ml; also called 未标记抗原; not shown: His tag
T1 sequence (looked up): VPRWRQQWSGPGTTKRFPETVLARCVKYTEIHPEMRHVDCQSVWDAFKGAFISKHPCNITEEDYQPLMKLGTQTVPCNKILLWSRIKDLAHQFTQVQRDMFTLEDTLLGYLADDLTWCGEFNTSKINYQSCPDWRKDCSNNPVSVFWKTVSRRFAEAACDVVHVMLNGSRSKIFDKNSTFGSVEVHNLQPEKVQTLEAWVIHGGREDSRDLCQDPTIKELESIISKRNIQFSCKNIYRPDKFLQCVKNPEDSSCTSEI

mono-Mac-6细胞表面的CD38 = target: T2, mono-Mac-6细胞表面的CD38 (UniProt P28907 1-300, limits assumed); experiment: flow cytometry on mono-Mac-6 cells, antibody production supernatant, APC anti-IgM secondary antibody
T2 construct: whole, on cells; also called CD38 on mono-Mac-6 cells
T2 sequence (looked up): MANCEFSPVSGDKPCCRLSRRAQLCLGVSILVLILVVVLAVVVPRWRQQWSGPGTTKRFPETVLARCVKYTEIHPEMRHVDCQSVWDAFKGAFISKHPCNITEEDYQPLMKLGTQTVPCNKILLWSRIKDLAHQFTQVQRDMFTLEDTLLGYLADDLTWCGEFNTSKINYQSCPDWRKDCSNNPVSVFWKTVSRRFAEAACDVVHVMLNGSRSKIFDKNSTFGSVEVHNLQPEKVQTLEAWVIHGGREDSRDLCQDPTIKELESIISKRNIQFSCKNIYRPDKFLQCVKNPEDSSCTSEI

binding result [1]: binds | binding result (mono-Mac-6细胞表面的CD38): binds
B1: 单克隆抗体70B5 (抗CD38的单克隆抗体) (antibody, V domains shown)
VH: EVQLQQSGPELVKPGASVKISCKASGYTFTDYYMNWVKQSHGKSLEWIGDINPNNGGTSYNQKFKGKATLTVDKSSSTAYMELRSLTSEDSAVYYCARGYYSNPFDVWGTGTTVTVSS
VL: DIQMTQSPSSLSASLGERVSLTCRASQDIGSSLNWLQQEPDGTIKRLIYATSSLDSGVPKRFSGSRSGSDYSLTISSLESEDFVDYYCLQYASSPLTFGAGTKLELK
notes: also called 70B5抗体
